Measurements from patent US20240343823A1 (Ablynx, published 2024).
Substitutions are numbered along the chain they refer to.

B1: A022600170 (other)
chain: DVQLVESGGGVVQPGGSLRLSCVASGYVHKINFYGWYRQAPGKEREKVAHISIGDQTDYADSAKGRFTISRDESKNTVYLQMNSLRPEDTAAYYCRALSRIWPYDYWGQGTLVTVSSGGGGSEVQLVESGGGLVQPGGSLRLSCVASGFTFSSFAMTWVRRPPGKGLEWVATITNGGVTSYRDSVKGRFTISRDNAKNTLYLEMTSLNPEDTAVYICANARRTGPRAPTDIGSYRGQGTLVTVSSGGGGSGGGGSGGGGSGGGGSGGGGSGGGGSGGGGSEVQLVESGGGLVQPGGSLRLSCVASGSIFRSVFSSSTMEWYRQPPGKKRELVARIAPGDGTNYGALYADSVKGRFTISRDDAKKTVDLQMNSLKPEDTGVYFCASGVAWGQGTLVTVSSGGGGSGGGSEVQLVESGGGVVQPGGSLRLSCAASGFTFRSFGMSWVRQAPGKGPEWVSSISGSGSDTLYADSVKGRFTISRDNSKNTLYLQMNSLRPEDTALYYCTIGGSLSRSSQGTLVTVSSA
B2: A022600174 (other)
chain: DVQLVESGGGVVQPGGSLRLSCVASGYVHKINFYGWYRQAPGKEREKVAHISIGDQTDYADSAKGRFTISRDESKNTVYLQMNSLRPEDTAAYYCRALSRIWPYDYWGQGTLVTVSSGGGGSEVQLVESGGGLVQPGGSLRLSCVASGFTFSSFAMTWVRRPPGKGLEWVATITNGGVTSYRDSVKGRFTISRDNAKNTLYLEMTSLNPEDTAVYICANARRTGPRAPTDIGSYRGQGTLVTVSSGGGGSGGGSEVQLVESGGGLVQPGGSLRLSCVASGSIFRSVFSSSTMEWYRQPPGKKRELVARIAPGDGTNYGALYADSVKGRFTISRDDAKKTVDLQMNSLKPEDTGVYFCASGVAWGQGTLVTVSSGGGGSGGGSEVQLVESGGGVVQPGGSLRLSCAASGFTFRSFGMSWVRQAPGKGPEWVSSISGSGSDTLYADSVKGRFTISRDNSKNTLYLQMNSLRPEDTALYYCTIGGSLSRSSQGTLVTVSSA
B3: A022600179 (other)
chain: DVQLVESGGGVVQPGGSLRLSCVASGYVHKINFYGWYRQAPGKEREKVAHISIGDQTDYADSAKGRFTISRDESKNTVYLQMNSLRPEDTAAYYCRALSRIWPYDYWGQGTLVTVSSGGGGSEVQLVESGGGLVQPGGSLRLSCVASGFTFSSFAMTWVRRPPGKGLEWVATITNGGVTSYRDSVKGRFTISRDNAKNTLYLEMTSLNPEDTAVYICANARRTGPRAPTDIGSYRGQGTLVTVSSGGGGSGGGSEVQLVESGGGVVQPGGSLRLSCAASGFTFRSFGMSWVRQAPGKGPEWVSSISGSGSDTLYADSVKGRFTISRDNSKNTLYLQMNSLRPEDTALYYCTIGGSLSRSSQGTLVTVSSA
B4: A022600175 (other)
chain: DVQLVESGGGVVQPGGSLRLSCVASGYVHKINFYGWYRQAPGKEREKVAHISIGDQTDYADSAKGRFTISRDESKNTVYLQMNSLRPEDTAAYYCRALSRIWPYDYWGQGTLVTVSSGGGGSEVQLVESGGGLVQPGGSLRLSCVASGFTFSSFAMTWVRRPPGKGLEWVATITNGGVTSYRDSVKGRFTISRDNAKNTLYLEMTSLNPEDTAVYICANARRTGPRAPTDIGSYRGQGTLVTVSSGGGGSGGGSEVQLVESGGGLVQPGGSLRLSCVASGSIFRSVFSSSTMEWYRQPPGKKRELVARIAPGDGTNYGALYADSVKGRFTISRDDAKKTVDLQMNSLKPEDTGVYFCASGVAWGQGTLVTVSSGGGGSGGGGSGGGGSGGGGSGGGGSGGGGSGGGGSEVQLVESGGGVVQPGGSLRLSCAASGFTFRSFGMSWVRQAPGKGPEWVSSISGSGSDTLYADSVKGRFTISRDNSKNTLYLQMNSLRPEDTALYYCTIGGSLSRSSQGTLVTVSSA
B5: A022600425 (other)
chain: DVQLVESGGGVVQPGGSLRLSCVASGYVHKINFYGWYRQAPGKEREKVAHISIGDQTDYADSAKGRFTISRDESKNTVYLQMNSLRPEDTAAYYCRALSRIWPYDYWGQGTLVTVSSGGGGSEVQLVESGGGVVQPGGSLRLSCAASGSIFRSVFSSSTMEWYRQAPGKKRELVARIAPGEGTYYGALYADSVKGRFTISRDNAKNTVYLQMNSLRPEDTALYYCASGVAWGQGTLVTVSSGGGGSGGGGSGGGGSGGGGSEVQLVESGGGVVQPGGSLRLSCAASGFTFSSFAMTWVRRPPGKGLEWVATITNAGVTSYADSVKGRFTISRDNAKNTLYLQMNSLRPEDTALYICANARRTGPRAPTDIGSYRGQGTLVTVSSGGGGSGGGSEVQLVESGGGVVQPGGSLRLSCAASGFTFRSFGMSWVRQAPGKGPEWVSSISGSGSDTLYADSVKGRFTISRDNSKNTLYLQMNSLRPEDTALYYCTIGGSLSRSSQGTLVTVSSA
B6: A022600426 (other)
chain: B5 chain with A315K
B7: A022600412 (other)
chain: DVQLVESGGGVVQPGGSLRLSCVASGYVHKINFYGWYRQAPGKEREKVAHISIGDQTDYADSAKGRFTISRDESKNTVYLQMNSLRPEDTAAYYCRALSRIWPYDYWGQGTLVTVSSGGGGSEVQLVESGGGVVQPGGSLRLSCAASGFTFSSFAMTWVRRPPGKGLEWVATITNAGVTSYADSVKGRFTISRDNAKNTLYLQMNSLRPEDTALYICANARRTGPRAPTDIGSYRGQGTLVTVSSGGGGSGGGGSGGGGSGGGGSEVQLVESGGGVVQPGGSLRLSCAASGFTFRSFGMSWVRQAPGKGPEWVSSISGSGSDTLYADSVKGRFTISRDNSKNTLYLQMNSLRPEDTALYYCTIGGSLSRSSQGTLVTVSSA
B8: A022600427 (other)
chain: DVQLVESGGGVVQPGGSLRLSCVASGYVHKINFYGWYRQAPGKEREKVAHISIGDQTDYADSAKGRFTISRDESKNTVYLQMNSLRPEDTAAYYCRALSRIWPYDYWGQGTLVTVSSGGGGSEVQLVESGGGVVQPGGSLRLSCAASGFTFSSFAMTWVRRPPGKGLEWVATITNAGVTSYADSVKGRFTISRDNAKNTLYLQMNSLRPEDTALYICANARRTGPRAPTDIGSYRGQGTLVTVSSGGGGSGGGSEVQLVESGGGVVQPGGSLRLSCAASGSIFRSVFSSSTMEWYRQAPGKKRELVARIAPGEGTYYGALYADSVKGRFTISRDNAKNTVYLQMNSLRPEDTALYYCASGVAWGQGTLVTVSSGGGGSGGGSEVQLVESGGGVVQPGGSLRLSCAASGFTFRSFGMSWVRQAPGKGPEWVSSISGSGSDTLYADSVKGRFTISRDNSKNTLYLQMNSLRPEDTALYYCTIGGSLSRSSQGTLVTVSSA
B9: A022600172 (other)
chain: DVQLVESGGGVVQPGGSLRLSCVASGYVHKINFYGWYRQAPGKEREKVAHISIGDQTDYADSAKGRFTISRDESKNTVYLQMNSLRPEDTAAYYCRALSRIWPYDYWGQGTLVTVSSGGGGSEVQLVESGGGLVQPGGSLRLSCVASGFTFSSFAMTWVRRPPGKGLEWVATITNGGVTSYRDSVKGRFTISRDNAKNTLYLEMTSLNPEDTAVYICANARRTGPRAPTDIGSYRGQGTLVTVSSGGGGSGGGSEVQLVESGGGVVQPGGSLRLSCAASGFTFRSFGMSWVRQAPGKGPEWVSSISGSGSDTLYADSVKGRFTISRDNSKNTLYLQMNSLRPEDTALYYCTIGGSLSRSSQGTLVTVSSGGGGSGGGSEVQLVESGGGLVQPGGSLRLSCVASGSIFRSVFSSSTMEWYRQPPGKKRELVARIAPGDGTNYGALYADSVKGRFTISRDDAKKTVDLQMNSLKPEDTGVYFCASGVAWGQGTLVTVSSA
B10: A022600169 (other)
chain: DVQLVESGGGLVQPGGSLRLSCVASGFTFSSFAMTWVRRPPGKGLEWVATITNGGVTSYRDSVKGRFTISRDNAKNTLYLEMTSLNPEDTAVYICANARRTGPRAPTDIGSYRGQGTLVTVSSGGGGSEVQLVESGGGVVQPGGSLRLSCVASGYVHKINFYGWYRQAPGKEREKVAHISIGDQTDYADSAKGRFTISRDESKNTVYLQMNSLRPEDTAAYYCRALSRIWPYDYWGQGTLVTVSSGGGGSEVQLVESGGGLVQPGGSLRLSCVASGSIFRSVFSSSTMEWYRQPPGKKRELVARIAPGDGTNYGALYADSVKGRFTISRDDAKKTVDLQMNSLKPEDTGVYFCASGVAWGQGTLVTVSSGGGGSGGGGSGGGGSGGGGSGGGGSGGGGSGGGGSEVQLVESGGGVVQPGGSLRLSCAASGFTFRSFGMSWVRQAPGKGPEWVSSISGSGSDTLYADSVKGRFTISRDNSKNTLYLQMNSLRPEDTALYYCTIGGSLSRSSQGTLVTVSSA

Target: T1, human GPC3 on tumor cell lines (HepG2, Huh-7, NCI-H661, MKN-45, NCI-H23, BxPC-3, NCI-H292) (human, UniProt P51654 25-554)
Test: cell-based or functional assay

Binder | HepG2 on Incucyte IC50 | HepG2 on Incucyte Max % killing | Huh7 on xCELLigence IC50 | Huh7 on xCELLigence Max % killing
B1 | 0.319 nM | 97% | 0.186 nM | 103%
B2 | 0.673 nM | 96% | 0.0626 nM | 99%
B3 | 2.92 nM | 76% | 6.13 nM | 66%
B4 | 0.527 nM | 96% | 0.0586 nM | 99%

Target: T1, human GPC3 on tumor cell lines (HepG2, …)
Test: cell-based or functional assay
Remark: another data set of the same source

Binder | HepG2 on Incucyte IC50 | HepG2 on Incucyte Max % killing | Huh7 on xCELLigence IC50 | Huh7 on xCELLigence Max % killing
B4 | 0.527 nM | 96% | 0.0586 nM | 99%

Target: T1, human GPC3 on tumor cell lines (HepG2, …)
Test: cell-based or functional assay
Remark: another data set of the same source

Binder | IC50 (M) BxPC-3, xCELLigence human TDC assay | IC50 (M) HepG2, xCELLigence human TDC assay | IC50 (M) Huh-7, xCELLigence human TDC assay | IC50 (M) NCI-H23, xCELLigence human TDC assay | IC50 (M) NCI-H661, xCELLigence human TDC assay
B5 | > 1e-07 M | 1.11e-10 M | 1.58e-10 M | > 1e-07 M | 2.59e-10 M
B6 | > 1e-07 M | 1.25e-10 M | 1.09e-10 M | > 1e-07 M | 2.64e-10 M
B7 | > 1e-07 M | 3.82e-10 M | 1.53e-09 M |  | 6.18e-10 M
B8 | > 1e-07 M | 1.03e-10 M | 1.37e-10 M | > 1e-07 M | 1e-10 M

Target: T1, human GPC3 on tumor cell lines (HepG2, …)
Test: cell-based or functional assay
Remark: another data set of the same source

Binder | HepG2 on Incucyte IC50 | HepG2 on Incucyte Max % killing | Huh7 on xCELLigence IC50 | Huh7 on xCELLigence Max % killing
B2 | 0.673 nM | 96% | 0.0626 nM | 99%
B9 | 0.601 nM | 81% | 0.067 nM | 90%
B10 | 0.641 nM | 81% | 1.02 nM | 61%
